The target of this assay is L-lysine α-oxidase precursor from Trichoderma viride (Trichoderma viride). Put plainly: crystal structure; prLysOX crystals by sitting-drop vapor diffusion at 20 °C, 0.1 M Tris-HCl pH 8.0-9.0, 2-2.1 M ammonium dihydrogen phosphate; space group C222(1); one molecule in the asymmetric unit, dimer formed by crystallographic two-fold symmetry; 1.97 Å.

Our source for the stoichiometry N values is paper PMC7844570.

By stoichiometry N is commonly meant a count of units in the complex or per binding partner. In turn, “L-lysine α-oxidase precursor from Trichoderma viride (enzyme)” came in with a stoichiometry N of 2.
